According to paper PMC8304084, “A Concerted Action of UBA5 C-Terminal Unstructured Regions Is Important for Transfer of Activated UFM1 to UFC1” (International Journal of Molecular Sciences, 2021):

Key:
Assay in all cases: ITC; VP-ITC, 25 °C; UBA5 peptides (~400 µM) titrated into 20–25 µM binding partner; 25 mM HEPES pH 7.5, 100 mM NaCl; one-site model; a single profile for each interaction
Conditions in all cases: both partners purified
[1] = target: T1, Full length UFM1, residues 2–83 (UniProt P61960 2-83)
T1 construct: N-terminal cloning artefact left after TEV cleavage (vector pET39_Ub19); UFM1 (ubiquitin fold modifier 1), residues 2–83 (processed form ending at Gly83); also called Ubiquitin fold modifier 1; source: E. coli T7 Express, purified (His Trap IMAC, TEV cleavage, reverse IMAC, Superdex gel filtration); not shown: modified ubiquitin tag (Ub19), N-terminal, cleaved
T1 sequence (P61960 other isoform, or with tags, fused parts or gaps): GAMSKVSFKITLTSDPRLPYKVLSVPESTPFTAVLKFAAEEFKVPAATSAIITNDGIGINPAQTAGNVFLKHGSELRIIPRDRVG

[2] = target: T2, GABARAPL2, residues 3–116 (UniProt P60520 3-116)
T2 construct: N-terminal cloning artefact left after TEV cleavage (vector pET39_Ub19); source: E. coli T7 Express, purified (His Trap IMAC, TEV cleavage, reverse IMAC, Superdex gel filtration); not shown: modified ubiquitin tag (Ub19), N-terminal, cleaved
T2 sequence (P60520 other isoform, or with tags, fused parts or gaps): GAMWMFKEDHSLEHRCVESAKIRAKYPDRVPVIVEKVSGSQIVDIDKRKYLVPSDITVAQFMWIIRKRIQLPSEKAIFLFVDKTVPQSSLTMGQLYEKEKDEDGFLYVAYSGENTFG

LC3B, residues 5–120 = LC3B, residues 5–120 (UniProt Q9GZQ8 5-120)

Measured: Kd

B1: UBA5 C-terminal region R2, residues 359–376 (peptide)
chain: GAMGPVPDLPEGITVAYTIPK
notes: N-terminal cloning artefact left after TEV cleavage (vector pET39_Ub19); also called isolated R2 peptide; source: E. coli T7 Express, purified (His Trap IMAC, TEV cleavage, reverse IMAC, Superdex gel filtration); not shown: modified ubiquitin tag (Ub19), N-terminal, cleaved
> 100 µM: [1] | [2] | LC3B, residues 5–120
